The source of these data is US20240409619A1.

For this test, the target named is SARS-COV-2 spike protein, isolate USA-WA1/2020, on pseudotyped virus (SARS-COV-2) (UniProt P0DTC2). Description: cell-based or functional assay.

The substance DMAb 2130_FcTM (antibody) had a serum potency (IC50) against USA-WA1/2020 pseudovirus of 1 to 2 ng/mL.
